# Experiments:
# Assay in all cases: flow cytometry, reporter cells, secondary antibody alone (blank)
# LILRA3 = biological target: LILRA3
# LILRA4 = biological target: LILRA4
# LILRA2 = biological target: LILRA2
# LILRB4 = biological target: LILRB4
# LILRA6 = biological target: LILRA6
# LAIR1 on reporter cells = LAIR1 on reporter cells (UniProt Q6GTX8)
# [1] = biological target: LILRB2 chimeric receptor on LILRB2 reporter cells (extracellular domain of LILRB2 fused with transmembrane/intracellular domains of PILRb) (UniProt Q8N423)
# [2] = biological target: LILRA1 on reporter cells (extracellular domain) (UniProt O75019)
# LILRB1 = biological target: LILRB1
# LILRB3 = biological target: LILRB3
# LILRA5 = biological target: LILRA5
# LILRB5 = biological target: LILRB5
# Chain of LILRB5 (chain, as listed by the source limits assumed): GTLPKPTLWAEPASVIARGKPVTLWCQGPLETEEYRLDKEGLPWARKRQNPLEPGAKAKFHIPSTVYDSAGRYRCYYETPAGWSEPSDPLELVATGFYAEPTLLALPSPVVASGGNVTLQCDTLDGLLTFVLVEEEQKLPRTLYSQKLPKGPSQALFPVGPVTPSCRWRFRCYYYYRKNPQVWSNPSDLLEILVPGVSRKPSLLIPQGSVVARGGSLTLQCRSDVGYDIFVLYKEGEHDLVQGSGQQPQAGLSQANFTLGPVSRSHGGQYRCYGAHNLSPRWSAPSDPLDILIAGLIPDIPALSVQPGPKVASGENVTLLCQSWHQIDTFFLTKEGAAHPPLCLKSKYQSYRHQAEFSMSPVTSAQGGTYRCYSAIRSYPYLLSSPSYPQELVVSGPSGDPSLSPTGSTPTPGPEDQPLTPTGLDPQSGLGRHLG
# Chain of LILRA5 (chain, as listed by the source limits assumed): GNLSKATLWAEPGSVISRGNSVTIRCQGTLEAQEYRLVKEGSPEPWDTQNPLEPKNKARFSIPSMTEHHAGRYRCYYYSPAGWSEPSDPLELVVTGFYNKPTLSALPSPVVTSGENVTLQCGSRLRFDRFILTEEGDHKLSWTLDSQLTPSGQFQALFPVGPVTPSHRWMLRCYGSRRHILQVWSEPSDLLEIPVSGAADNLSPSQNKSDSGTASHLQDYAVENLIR
# Chain of LILRA4 (chain, as listed by the source limits assumed): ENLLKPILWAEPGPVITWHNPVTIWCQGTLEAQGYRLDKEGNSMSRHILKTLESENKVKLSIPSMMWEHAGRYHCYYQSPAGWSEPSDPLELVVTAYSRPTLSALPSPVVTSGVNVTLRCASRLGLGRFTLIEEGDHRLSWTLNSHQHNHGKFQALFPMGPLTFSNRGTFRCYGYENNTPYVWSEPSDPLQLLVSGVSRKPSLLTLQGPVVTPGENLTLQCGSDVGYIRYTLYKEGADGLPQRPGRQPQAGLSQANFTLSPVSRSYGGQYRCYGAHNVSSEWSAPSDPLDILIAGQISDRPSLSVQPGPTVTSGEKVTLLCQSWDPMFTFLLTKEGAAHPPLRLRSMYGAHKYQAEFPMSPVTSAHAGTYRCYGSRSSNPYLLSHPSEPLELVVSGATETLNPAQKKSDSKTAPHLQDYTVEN
# Chain of LILRA2 (chain, as listed by the source limits assumed): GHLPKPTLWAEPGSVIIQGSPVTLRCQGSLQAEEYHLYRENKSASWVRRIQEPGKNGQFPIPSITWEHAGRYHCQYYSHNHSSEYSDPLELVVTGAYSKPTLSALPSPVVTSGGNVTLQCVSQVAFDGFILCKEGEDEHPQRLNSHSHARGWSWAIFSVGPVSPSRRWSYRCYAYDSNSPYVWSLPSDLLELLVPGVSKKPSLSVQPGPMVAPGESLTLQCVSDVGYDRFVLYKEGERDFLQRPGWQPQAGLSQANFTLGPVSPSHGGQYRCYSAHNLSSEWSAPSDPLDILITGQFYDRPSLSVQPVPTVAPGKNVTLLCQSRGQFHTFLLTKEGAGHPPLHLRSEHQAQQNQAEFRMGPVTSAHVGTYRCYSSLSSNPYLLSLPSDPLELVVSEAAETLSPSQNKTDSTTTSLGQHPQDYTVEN
# Chain of LAIR1 on reporter cells (Q6GTX8 22-165 limits assumed): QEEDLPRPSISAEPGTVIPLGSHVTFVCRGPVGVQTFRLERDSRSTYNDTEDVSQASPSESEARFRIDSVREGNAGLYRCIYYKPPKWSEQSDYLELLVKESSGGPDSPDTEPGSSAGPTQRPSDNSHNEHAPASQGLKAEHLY
# Chain of LILRA6 (chain, as listed by the source limits assumed): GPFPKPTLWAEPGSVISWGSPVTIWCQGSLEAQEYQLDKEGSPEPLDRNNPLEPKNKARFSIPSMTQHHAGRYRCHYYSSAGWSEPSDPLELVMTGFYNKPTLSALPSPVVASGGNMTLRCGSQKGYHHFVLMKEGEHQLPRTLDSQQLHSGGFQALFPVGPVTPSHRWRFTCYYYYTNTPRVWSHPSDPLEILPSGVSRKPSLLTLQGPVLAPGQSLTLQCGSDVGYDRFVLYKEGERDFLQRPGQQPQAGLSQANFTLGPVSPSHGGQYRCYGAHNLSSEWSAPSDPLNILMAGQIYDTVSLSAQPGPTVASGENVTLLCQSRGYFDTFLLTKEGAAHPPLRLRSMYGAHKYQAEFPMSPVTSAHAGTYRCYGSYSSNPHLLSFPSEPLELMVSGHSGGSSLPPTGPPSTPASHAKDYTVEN
# Chain of LILRA3 (chain, as listed by the source limits assumed): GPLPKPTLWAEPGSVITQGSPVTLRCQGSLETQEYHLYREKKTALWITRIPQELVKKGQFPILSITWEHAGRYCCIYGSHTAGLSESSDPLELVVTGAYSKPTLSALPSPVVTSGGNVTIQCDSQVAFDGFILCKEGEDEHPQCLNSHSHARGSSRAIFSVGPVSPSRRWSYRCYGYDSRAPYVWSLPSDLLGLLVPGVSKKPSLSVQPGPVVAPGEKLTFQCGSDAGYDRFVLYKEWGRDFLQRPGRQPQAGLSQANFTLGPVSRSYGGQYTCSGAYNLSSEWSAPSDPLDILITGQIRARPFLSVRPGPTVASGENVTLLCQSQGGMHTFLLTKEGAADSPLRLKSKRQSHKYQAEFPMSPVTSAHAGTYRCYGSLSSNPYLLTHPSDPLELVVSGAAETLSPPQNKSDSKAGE
# Chain of LILRB1 (chain, as listed by the source limits assumed): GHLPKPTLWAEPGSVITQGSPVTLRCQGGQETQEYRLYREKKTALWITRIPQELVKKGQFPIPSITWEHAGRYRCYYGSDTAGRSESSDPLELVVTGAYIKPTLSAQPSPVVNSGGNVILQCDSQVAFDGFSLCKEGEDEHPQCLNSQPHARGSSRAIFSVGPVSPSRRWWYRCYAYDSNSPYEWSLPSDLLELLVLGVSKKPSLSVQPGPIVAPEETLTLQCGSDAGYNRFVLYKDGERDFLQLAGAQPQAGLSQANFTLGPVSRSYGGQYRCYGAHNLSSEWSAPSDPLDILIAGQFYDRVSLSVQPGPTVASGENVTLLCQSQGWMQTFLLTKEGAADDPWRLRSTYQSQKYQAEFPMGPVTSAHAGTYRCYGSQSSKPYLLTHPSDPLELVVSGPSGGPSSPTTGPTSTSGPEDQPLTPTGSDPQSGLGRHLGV
# Chain of LILRA1 on reporter cells (extracellular domain) (O75019 17-461 limits assumed): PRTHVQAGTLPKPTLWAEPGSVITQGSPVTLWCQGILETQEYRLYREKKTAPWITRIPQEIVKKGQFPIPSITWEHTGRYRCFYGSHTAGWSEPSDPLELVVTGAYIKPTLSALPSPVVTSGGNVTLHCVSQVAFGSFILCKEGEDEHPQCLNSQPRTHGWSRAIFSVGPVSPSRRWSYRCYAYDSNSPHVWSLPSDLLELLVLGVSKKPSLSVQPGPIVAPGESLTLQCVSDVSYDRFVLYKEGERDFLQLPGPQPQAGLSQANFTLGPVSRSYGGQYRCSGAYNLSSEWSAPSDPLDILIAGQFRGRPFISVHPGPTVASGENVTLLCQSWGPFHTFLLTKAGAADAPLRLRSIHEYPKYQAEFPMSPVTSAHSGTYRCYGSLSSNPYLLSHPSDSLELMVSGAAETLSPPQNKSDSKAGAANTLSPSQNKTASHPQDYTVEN
substance,measurement,setting,value
2nd Ab (antibody),MFI,LILRA3,10
same,MFI,LILRA4,10
same,MFI,LILRA2,9
same,MFI,LILRB4,13
same,MFI,LILRA6,10
same,MFI,LAIR1 on reporter cells,23
same,MFI,[1],10
same,MFI,[2],10
same,MFI,LILRB1,9
same,MFI,LILRB3,9
same,MFI,LILRA5,11
same,MFI,LILRB5,11
